Molecular target: 125I-PDGF plasma-binding protein of human plasma (about 280,000 mol wt) (human (endogenous in plasma))

- percent of added 125I-PDGF bound: 10 to 20%
Substance: 125I-labelled human platelet-derived growth factor II (from UniProt P04085 87-211; P01127 82-190) (ligand)

Reference: article PMC2112520
